The text below walks through data of paper PMC2635643, “Improving the Stability of Insulin in Solutions Containing Intestinal Proteases in Vitro” (International Journal of Molecular Sciences, 2008).

Data set [1] in a line: UV absorption spectra of insulin in different solutions. The data set is classed as physicochemical. Particulars: Table 1, UV absorption at 275 nm; insulin 100 μg/mL, casein 200 μg/mL, HP-β-CD 1 mg/mL (Figure 6A). The protocol: Absorption spectra were recorded on a Shimadzu UV-2450 spectrophotometer. The absorption spectra were carried out according to Kano et al..
A further data set has as its system trypsin. Nature of the data set: Degradation of insulin induced by trypsin (remaining insulin by HPLC and PAGE). The data set is classed as in vitro ADME. Here is the method: (§1) HPLC was carried out according to Todo et al. with minor modifications. Analyses of remaining insulin were carried out by reserve phase HPLC with an isocratic system (Shimadzu Co., Kyoto) using the raw insulin bulk drug as the standard (28 IU/mg). The HPLC system was composed of a pump (LC-10ADvp), diode array detector (SPD-M10Avp), column oven (CTO-10ASvp), and LC workstation (CLASS-LC10). The mobile phase was a 72:28 mixture of 0.2 mol/L sodium sulphate buffer (pH 3.0) and acetonitrile at a flow rate of 1.0 mL/min. The column was a Shodex Asahipak ODP-50 6D (4.6mm × 150 mm, 5 um) (Showa Denko, Ltd., Tokyo) heated at room temperature. Ultraviolet absorption was measured at 214 nm.
(§2) PAGE was carried out according to Laemmli with minor modifications. The running gel, stacking gel and electrode buffer are without sodium dodecyl sulfate (SDS). The running gel and stacking gel contained 15% and 4.5% acrylamide, respectively. After electrophoresis, the gels were subjected to stain with Coomassie Brilliant R-250.
(§3) Insulin was dissolved in a few drops of 0.05 mol/L HCL, then 0.05 mol/L PBS (phosphate buffer, pH=7.0) was added. α-Chymotrypsin (5 mg/mL) and trypsin (12 mg/mL) solutions were prepared with Tris-HCL buffer (pH=8.0), respectively. Casein (5 g) was dissolved in 0.1 mol/L NaOH (10 mL), then was diluted to 100 mL with PBS (pH=7.0), The pH of final concentration was again measured and adjusted to pH 7.0. 5% Protamine solution was prepared with PBS (pH=7.0). Insulin solution and enzyme solutions were incubated at 37 °C for 15 min. Different treatments were administered. The final concentration of insulin in the solution was 0.5 mg/mL. The final mass ratios in the solution were as following, insulin:HP-β-CD = 1 :30; insulin:casein = 1:10; insulin:protamine = 1:10; insulin:casein or protamine:HP-β-CD = 1:10:30. Before the addition of a-chymotrypsin solution, insulin solution was vortexed at high speed for 5 s and a sample was withdrawn and added with ice-cold 0.5% TFA acid as the zero time sample. Samples were withdrawn for 15, 30, 45 and 60 min after the addition of the enzyme solution at 37 °C. The final enzyme concentrations of α-chymotrypsin and trypsin were 8 mg/L [29] and 600 mg/L [21], respectively. Then the samples were analyzed by PAGE and HPLC after adding 50 μl of ice-cold 0.5% TFA acid to terminate the reaction. Every experiment was carried out three times. The average and the standard deviation of the data were calculated.

A further data set concerns α-chymotrypsin. Nature of the data set: Degradation of insulin induced by α-chymotrypsin (remaining insulin by HPLC and PAGE). The format is in vitro ADME. Here is the method:
as §1, §2, §3

Take Casein: the ΔA275 in data set [1] was 0.219.
With Insulin, the “degradation of insulin by trypsin, treated with HP-β-CD” value with trypsin (insulin 0.5 mg/mL, insulin:HP-β-CD = 1:30 (mass), trypsin 600 mg/L, PBS pH 7.0, 37 °C, 0-60 min, n=3, P>0.05 vs insulin alone) is given as “partly inhibited”. In the data set with trypsin (insulin 0.5 mg/mL, insulin:protamine = 1:10 (mass), trypsin 600 mg/L, PBS pH 7.0, 37 °C, 0-60 min, n=3, P<0.05 vs insulin alone), the “degradation of insulin by trypsin in the presence of protamine” value was “significantly decreased”. Moreover, in the data set with trypsin (insulin 0.5 mg/mL, insulin:protamine:HP-β-CD = 1:10:30 (mass), trypsin 600 mg/L, PBS pH 7.0, 37 °C, at 60 min, HPLC UV 214 nm, mean of n=3, P<0.01 vs insulin alone), the “insulin detected (remaining) against trypsin, co-incubated with HP-β-CD and protamine” value is “about 70%”. The “insulin remained against trypsin” value in the data set on trypsin (insulin alone 0.5 mg/mL, trypsin 600 mg/L, PBS pH 7.0, 37 °C, after 60 min, 15 min pre-incubation, HPLC UV 214 nm, mean of n=3) is “about 15%”. In addition, the “remaining insulin against trypsin in the solution containing casein and protamine” value in the data set on trypsin (insulin with casein and protamine, trypsin, 37 °C, data not shown) is reported as “almost equal to that in the solution containing protamine”. In the data set with α-chymotrypsin (insulin 0.5 mg/mL, insulin:HP-β-CD = 1:30 (mass), α-chymotrypsin 8 mg/L, PBS pH 7.0, 37 °C, sampling 0-60 min, HPLC UV 214 nm, mean of n=3, P>0.05 vs insulin alone), the “insulin detected (remaining) against α-chymotrypsin, treated with HP-β-CD” value is “About 25%”. Also, the “insulin remained undegraded against α-chymotrypsin, treated with casein” value in the data set with α-chymotrypsin (insulin 0.5 mg/mL, insulin:casein = 1:10 (mass), α-chymotrypsin 8 mg/L, PBS pH 7.0, 37 °C, sampling 0-60 min, HPLC UV 214 nm, mean of n=3, P<0.01 vs insulin alone) is “about 45%”. Further, the “insulin remained undegraded against α-chymotrypsin, co-incubated with HP-β-CD and casein” value in the data set on α-chymotrypsin (insulin 0.5 mg/mL, insulin:casein:HP-β-CD = 1:10:30 (mass), α-chymotrypsin 8 mg/L, PBS pH 7.0, 37 °C, sampling 0-60 min, HPLC UV 214 nm, mean of n=3, P<0.001 vs insulin alone) is listed as “About 80%”. The “remaining insulin against α-chymotrypsin” value with α-chymotrypsin (insulin alone 0.5 mg/mL, α-chymotrypsin 8 mg/L, PBS pH 7.0, 37 °C, after 60 min, 15 min pre-incubation, HPLC UV 214 nm and PAGE, n=3) is given as “most of insulin was degraded”. Moreover, the “remained insulin against α-chymotrypsin in the solution containing casein and protamine” value in the data set with α-chymotrypsin (insulin with casein and protamine, α-chymotrypsin, 37 °C, data not shown) is “almost equal to that in the solution containing casein”. For the same substance, the ΔA275 in data set [1] was found to be 0.098.
